According to patent publication US6642040B2, “Human cGMP-stimulated cyclic nucleotide phosphodiesterase” (The Board of Regents of the University of Washington, priority 1991, dated 2003):

Experiments:
[1] = test system: cyclic AMP and cyclic GMP hydrolysis; test: Phosphodiesterase assay of yeast cell extracts, second method of part D; assay type: biochemical, human; details: extracts of YKS45
Description: YKS45 transformed with plasmid pHcgs6n were grown in SC-leu medium to 1-2×10^7 cells/ml. The cells were harvested by centrifugation and the cell pellets were frozen. A frozen cell pellet, typically containing 10^10 cells, was mixed with lysis buffer (25 mM Tris HCl pH 8, 5 mM EDTA, 5 mM EGTA, 1 mM o-phenathroline, 0.5 mM AEBSF, 0.01 mg/mL pepstatin, 0.01 mg/mL leupeptin, 0.01 mg/mL aprotinin, 0.1% 2-mercaptoethanol) to bring the total volume to 2.5 ml. The mixture was thawed on ice and then added to an equal volume of glass beads. The cells were disrupted by cycles of vortexing and chilling on ice, then additional lysis buffer was mixed with the disrupted cells to bring the total lysis buffer added to 5 ml. The suspension was centrifuged for 5 min. at 12,000× g. The supernatant was removed and either assayed immediately or frozen rapidly in a dry ice ethanol bath and stored at −70° C.
Phosphodiesterase activity was assayed by mixing an aliquot of cell extract in (40 mM Tris-Cl pH 8.0, 1.mM EGTA, 0.01 mg/mL BSA) containing 5 mM MgCl2 and radioactive substrate, incubating at 30° C. for up to 30 min. and terminating the reaction with stop buffer (0.1 M ethanolamine pH 9.0, 0.5M ammonium sulfate, 10 mM EDTA, 0.05% SDS final concentration). […] The radioactive product was measured by scintillation counting.

yeast host strain YKS45 = test: Yeast heat shock phenotype complementation, strain YKS45; assay type: cell-based, S. cerevisiae; details: YKS45, 56° C. for 10, 20, 30 and 45 minutes
Description: The host cells used in these procedures were S. cerevisiae yeast strains 10DAB (ATCC accession No. 74049) and YKS45, both of which were pde^1- pde^2- resulting in a phenotype characterized by heat shock sensitivity, i.e., the inability of cells to survive exposure to elevated temperatures on the order of 55-56° C. In these complementation procedures, the inserted gene product was noted to conspicuously modify the heat shock phenotype.
In a like manner, plasmid pHcgs6n (Example VI) was transformed into yeast host strain YKS45 by lithium acetate transformation. Heat shock analysis was performed as above except that the plates were initially grown two days at 30° C. and the warmed plates were maintained at 56° C. for 10, 20, 30 and 45 minutes.

cAMP hydrolysis = test: cGS-PDE activity of PPD-S49 cells transfected with cGS-PDE cDNA; assay type: biochemical, bovine; details: zinc-treated PPD S49 cells, pZEM 228 vector
From the text: A putative phosphodiesterase-deficient (PPD) strain of S49 cells [Bourne et al., J. Cell. Physiol., 85:611-620 (1975)] was transiently transfected with the cGS-PDE cDNA using the DEAE-dextran method. The cGS-PDE cDNA was ligated into the unique BamHI cloning site in a mammalian expression vector, designated pZEM 228, following a zinc-inducible metallothionine promoter and prior to an SV40 transcription termination sequence. The DNA was purified from large-scale plasmid preparations using Qiagen pack-500 columns as directed by the manufacturer. PPD-S49 cells were cultured in DMEM containing 10% heat-inactivated horse serum, 50 μg/ml penicillin G and 50 μg/ml streptomycin sulfate at 37° C. in a water-saturated 7% CO2 atmosphere. Prior to transfections, confluent 100 mm dishes of cells were replated at one-fifth of the original density and incubated for 24-36 h. In a typical transfection experiment, PPD-S49 cells (50-80% confluent) were washed with Tris-buffered-saline and approximately 2×10^7 cells were transfected with […] of DNA mixed with 400 μg of DEAE-dextran in one ml of TBS. […]
cGS PDE activity was determined by a previously described method using [^3H]cAMP as the substrate as in Martins et al., J. Biol. Chem., 257:1973-1979 (1982). […] The Bradford assay [Bradford, Anal. Biochem., 72:248-254 (1976)] was used to quantitate protein using BSA as the standard.

cGS-PDE activity = cGS-PDE activity of membrane and supernatant fractions of transfected COS-7 cells; assay type: biochemical, bovine; details: most of the activity in supernatant fractions
From the text: Transient expression of the CGS-PDE cDNA in COS-7 cells was accomplished as in Example I. A 4.2 kb fragment of p3CGS-5 was isolated using HindIII and NotI and was inserted into plasmid pCDM8, which had been digested with the same enzymes. The character of products produced in COS-7 cells transformed with the p3CGS-5/pCDM8 construct is discussed in Example V, infra.
For transient expression in COS-7 cells, a 3.8 kb fragment of pBBCGSPDE-7 was isolated using HindIII and NotI and inserted into plasmid pCDM8 which had been cut with HindIII and NotI restriction endonucleases. The recombinant pBBCGSPDE-7/CDM8 construct was used to transiently transfect COS-7 cells. The properties of the pBBCGSPDE-7/CDM8 construct and the p3CGS-5/CDM8 construct prepared in Example IV products were subsequently compared. Membrane and supernatant fractions were prepared from extracts of transfected COS-7 cells and assayed for cGS-PDE activity. […] However, a 10-fold greater percentage of total cGS-PDE activity was detected in membranes from COS-7 cell extracts transfected with the pBBCGSPDE-7/CDM8 construct than in membranes prepared from p3CGS-5/CDM8-transfected COS-7 cells.

Molecule | hydrolysis of cyclic AMP and cyclic GMP by cell extracts [1] | heat shock phenotype of transformed yeast (yeast host strain YKS45) | cGMP-enhanced cAMP phosphodiesterase activity (cAMP hydrolysis) | cGS-PDE activity in COS-7 cell extracts (cGS-PDE activity)
pHcgs6n: yeast expression plasmid with coding region of human cGS-PDE (SEQ ID NO: 45) (protein) MGQACGHSILCRSQQYPAARPAEPRGQQVFLKPDEPPPPPQPCADSLQDALLSLGSVIDISGLQRAVKEALSAVLPRVETVYTYLLDGESQLVCEDPPHELPQEGKVREAIISQKRLGCNGLGFSDLPGKPLARLVAPLAPDTQVLVMPLADKEAGAVAAVILVHCGQLSDNEEWSLQAVEKHTLVALRRVQVLQQRGPREAPRAVQNPPEGTAEDQKGGAAYTDRDRKILQLCGELYDLDASSLQLKVLQYLQQETRASRCCLLLVSEDNLQLSCKVIGDKVLGEEVSFPLTGCLGQVVEDKKSIQLKDLTSEDVQQLQSMLGCELQAMLCVPVISRATDQVVALACAFNKLEGDLFTDEDEHVIQHCFHYTSTVLTSTLAFQKEQKLKCECQALLQVAKNLFTHLDDVSVLLQEIITEARNLSNAEICSVFLLDQNELVAKVFDGGVVDDESYEIRIPADQGIAGHVATTGQILNIPDAYAHPLFYRGVDDSTGFRTRNILCFPIKNENQEVIGVAELVNKINGPWFSKFDEDLATAFSIYCGISIAHSLLYKKVNEAQYRSHLANEMMMYHMKVSDDEYTKLLHDGIQPVAAIDSNFASFTYTPRSLPEDDTSMAILSMLQDMNFINNYKIDCPTLARFCLMVKKGYRDPPYHNWMHAFSVSHFCYLLYKNLELTNYLEDIEIFALFISCMCHDLDHRGTNNSFQVASKSVLAALYSSEGSVMERHHFAQAIAILNTHGCNIFDHFSRKDYQRMLDLMRDIILATDLAHHLRIFKDLQKMAEVGYDRNNKQHHRLLLCLLMTSCDLSDQTKGWKTTRKIAELIYKEFFSQGDLEKAMGNRPMEMMDREKAYIPELQISFMEHIAMPIYKLLQDLFPKAAELYERVASNREHWTKVSHKFTIRGLPSNNSLDFLDEEYEVPDLDGTRAPINGCCSLDAE | hydrolyzed both cyclic AMP and cyclic GMP | resistant to thermal pulse | – | –
cGS-PDE cDNA: expression product of bovine adrenal cortex cGS-PDE cDNA (SEQ ID NO: 39) (protein) MRRQPAASRDLFAQEPVPPGSGDGALQDALLSLGSVIDVAGLQQAVKEALSAVLPKVETVYTYLLDGESRLVCEEPPHELPQEGKVREAVISRKRLGCNGLGPSDLPGKPLARLVAPLAPDTQVLVIPLVDKEAGAVAAVILVHCGQLSDNEEWSLQAVEKHTLVALKRVQALQQRESSVAPEATQNPPEEAAGDQKGGVAYTNQDRKILQLCGELYDLDASSLQLKVLQYLQQETQASRCCLLLVSEDNLQLSCKVIGDKVLEEEISFPLTTGRLGQVVEDKKSIQLKDLTSEDMQQLQSMLGCEVQAMLCVPVISRATDQVVALACAFNKLGGDLFTDQDEHVIQHCFHYTSTVLTSTLAFQKEQKLKCECQALLQVAKNLFTHLDDVSVLLQEIITEARNLSNAEICSVFLLDQNELVAKVFDGGVVEDESYEIRIPADQGIAGHVATTGQILNIPDAYAHPLFYRGVDDSTGFRTRNILCFPIKNENQEVIGVAELVNKINGPWFSKFDEDLATAFSIYCGISIAHSLLYKKVNEAQYRSHLANEMMMYHMKVSDDEYTKLLHDGIQPVAAIDSNFASFTYTPRSLPEDDTSMAILSMLQDMNFINNYKIDCPTLARFCLMVKKGYRDPPYHNWMHAFSVSHFCYLLYKNLELTNYLEDMEIFALFISCMCHDLDHRGTNNSFQVASKSVLAALYSSEGSVMERHHFAQAIAILNTHGCNIFDHFSRKDYQRMLDLMRDIILATDLAHHLRIFKDLQKMAEVGYDRTNKQHHSLLLCLLMTSCDLSDQTKGWKTTRKIAELIYKEFFSQGDLEKAMGNRPMEMMDREKAYIPELQISFMEHIAMPIYKLLQDLFPKAAELYERVASNREHWTKVSHKFTIRGLPSNNSLDFLDEEYEVPDLDGARAPINGCCSLDAE | – | – | expressed cGMP-enhanced CAMP phosphodiesterase activity | produced cGS-PDE activities
